Values of other authors, collected in publication PMC4484741.
Read-outs that look alike come from different tables or passages of the source.

Assays:
[1] = molecular target: GLP-1 receptor (UniProt P43220)
[2] = molecular target: GLP-1 receptor (UniProt P43220); remark: listed apart in the source

Chain of GLP-1 receptor (P43220 24-463): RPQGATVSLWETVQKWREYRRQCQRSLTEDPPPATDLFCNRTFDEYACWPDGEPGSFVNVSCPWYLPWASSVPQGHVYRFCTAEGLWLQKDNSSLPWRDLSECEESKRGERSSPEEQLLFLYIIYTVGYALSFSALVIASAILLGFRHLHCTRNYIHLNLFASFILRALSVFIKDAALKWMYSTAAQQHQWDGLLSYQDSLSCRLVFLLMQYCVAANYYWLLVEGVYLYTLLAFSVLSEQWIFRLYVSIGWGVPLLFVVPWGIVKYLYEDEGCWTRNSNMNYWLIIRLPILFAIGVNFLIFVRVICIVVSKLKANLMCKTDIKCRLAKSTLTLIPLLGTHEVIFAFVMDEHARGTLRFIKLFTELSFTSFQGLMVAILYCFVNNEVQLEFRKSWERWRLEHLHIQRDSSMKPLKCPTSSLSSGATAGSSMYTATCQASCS
Chain of Exendin-4 (P26349 48-86): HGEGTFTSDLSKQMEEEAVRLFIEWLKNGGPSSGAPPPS
Chain of Exendin (9-39) 9-39 (P26349 56-86): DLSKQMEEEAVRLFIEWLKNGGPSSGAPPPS

Substance | Kd [1] [nM] | Kd [2] [nM]
Exendin (9-39) 9-39 (from UniProt P26349) | 3 | 
Exendin-4 (from UniProt P26349) |  | 0.14
